Assay results taken from paper PMC10786891, “Massively parallel profiling of RNA-targeting CRISPR-Cas13d”.
Where a chain is given by its changes, count along the chain named. Names and notes keep the numbering of the source.

B1: target 1 U8A,U10C (mixed)
RNA 1: CACCCGUGCAAAAAUGCAGGGGUCUAAAACUGAGCGGAUAACCUCUCUAUGG
RNA 2: GGGAAUGGAUCCACAUCUACGAAUUCGUACCAUAGAGAGGUCAACCGCUCACCGAGAUCGGAAGAGCACACGU
B2: target 1 insA 3' of 11,insG 3' of 6 (mixed)
RNA 1: B1 RNA 1
RNA 2: GGGAAUGGAUCCACAUCUACGAAUUCGUACCAUAGAGAGGUAUAUCCGGCUCACCGAGAUCGGAAGAGCACACGU
B3: target 1 U11G,A18U (mixed)
RNA 1: B1 RNA 1
RNA 2: B1 RNA 2 with A34U, U41G, C42U, A44U
B4: target 1 C6G,A9C (mixed)
RNA 1: B1 RNA 1
RNA 2: B1 RNA 2 with C42U, A43C, A44U, C46G
B5: target 1 insC 3' of 15,insG 3' of 1 (mixed)
RNA 1: B1 RNA 1
RNA 2: B2 RNA 2 with A38C, G39A, U41G, A42U, G49C, C50U, U51C, C52A, A53G
B6: target 1 insC 3' of 11,insC 3' of 5 (mixed)
RNA 1: B1 RNA 1
RNA 2: B2 RNA 2 with A42C, G49C
B7: target 1 G13A,A16C (mixed)
RNA 1: B1 RNA 1
RNA 2: B1 RNA 2 with A36C, G39A, C42U, A44U
B8: target 1 insA 3' of 6,insC 3' of 3 (mixed)
RNA 1: B1 RNA 1
RNA 2: B2 RNA 2 with A42U, U43A, A44U, U45C, C47A, G49C, C50U, U51C
B9: target 1 insA 3' of 6,insA 3' of 4 (mixed)
RNA 1: B1 RNA 1
RNA 2: B2 RNA 2 with A42U, U43A, A44U, U45C, C47A, G49C, C50A
B10: target 1 insU 3' of 7 (mixed)
RNA 1: B1 RNA 1
RNA 2: GGGAAUGGAUCCACAUCUACGAAUUCGUACCAUAGAGAGGUUAUCUCGCUCACCGAGAUCGGAAGAGCACACGU
B11: target 1 insU 3' of 21,insU 3' of 20 (mixed)
RNA 1: B1 RNA 1
RNA 2: GGGAAUGGAUCCACAUCUACGAAUUCGUACCUAUUAGAGAGGUUAUCCGCUCACCGAGAUCGGAAGAGCACACGU
B12: target 1 insG 3' of 19,insG 3' of 1 (mixed)
RNA 1: B1 RNA 1
RNA 2: GGGAAUGGAUCCACAUCUACGAAUUCGUACCAUGAGAGAGGUUAUCCGCUCAGCCGAGAUCGGAAGAGCACACGU
B13: target 1 insG 3' of 19,insA 3' of 2 (mixed)
RNA 1: B1 RNA 1
RNA 2: B12 RNA 2 with G53A
B14: target 1 C4G,G5U (mixed)
RNA 1: B1 RNA 1
RNA 2: B1 RNA 2 with C42U, A44U, G47U, C48G
B15: target 1 insG 3' of 11,insG 3' of 8 (mixed)
RNA 1: B1 RNA 1
RNA 2: B2 RNA 2 with A42G, C46G, G48C
B16: target 1 insG 3' of 19,insC 3' of 1 (mixed)
RNA 1: B1 RNA 1
RNA 2: B12 RNA 2 with G53C
B17: target 1 G12U,A14C (mixed)
RNA 1: B1 RNA 1
RNA 2: B1 RNA 2 with A38C, G40U, C42U, A44U
B18: target 1 insA 3' of 11,insA 3' of 4 (mixed)
RNA 1: B1 RNA 1
RNA 2: B2 RNA 2 with G49C, C50A
B19: target 1 C2A,A18U (mixed)
RNA 1: B1 RNA 1
RNA 2: B1 RNA 2 with A34U, C42U, A44U, C50A
B20: target 1 insC 3' of 12,insU 3' of 7 (mixed)
RNA 1: B1 RNA 1
RNA 2: B2 RNA 2 with U41C, A42U, C47U, G48C
B21: target 1 A1U,U10G (mixed)
RNA 1: B1 RNA 1
RNA 2: B1 RNA 2 with C42G, A44U, A51U
B22: target 1 insG 3' of 19,insU 3' of 1 (mixed)
RNA 1: B1 RNA 1
RNA 2: B12 RNA 2 with G53U
B23: target 1 insA 3' of 7,insU 3' of 7 (mixed)
RNA 1: B1 RNA 1
RNA 2: B2 RNA 2 with A42U, U43A, A44U, U45C, C46A, C47U, G48C
B24: target 1 insG 3' of 7,insG 3' of 6 (mixed)
RNA 1: B1 RNA 1
RNA 2: B2 RNA 2 with A42U, U43A, A44U, U45C, C46G
B25: target 1 A1U,U19G (mixed)
RNA 1: B1 RNA 1
RNA 2: B1 RNA 2 with U33G, C42U, A44U, A51U
B26: target 1 A1C,U10G (mixed)
RNA 1: B1 RNA 1
RNA 2: B1 RNA 2 with C42G, A44U, A51C
B27: target 1 U10G (mixed)
RNA 1: B1 RNA 1
RNA 2: B1 RNA 2 with C42G, A44U
B28: target 1 insA 3' of 13,insA 3' of 3 (mixed)
RNA 1: B1 RNA 1
RNA 2: B2 RNA 2 with G40A, U41G, A42U, G49C, C50U, U51A
B29: target 1 A1G,U10G (mixed)
RNA 1: B1 RNA 1
RNA 2: B1 RNA 2 with C42G, A44U, A51G
B30: target 1 del18 (mixed)
RNA 1: B1 RNA 1
RNA 2: GGGAAUGGAUCCACAUCUACGAAUUCGUACCAUGAGAGGUUAUCCGCUCACCGAGAUCGGAAGAGCACACGU
B31: target 1 insU 3' of 15,insU 3' of 5 (mixed)
RNA 1: B1 RNA 1
RNA 2: B2 RNA 2 with A38U, G39A, U41G, A42U, G49U
B32: target 1 insA 3' of 17,insG 3' of 2 (mixed)
RNA 1: B1 RNA 1
RNA 2: B12 RNA 2 with G34A, A35G, G36A, A52G, G53A
B33: target 1 U11C,A14G (mixed)
RNA 1: B1 RNA 1
RNA 2: B1 RNA 2 with A38G, U41C, C42U, A44U

These binders were tested against T1, EsCas13d, nuclease-dead (Eubacterium siraeum, UniProt B0MS50, R295A;H300A;R849A;H854A) (assay: crRNA (strand 1, pre-loaded); Mg2+; 40 mM Tris-HCl pH 7.5, 150 mM NaCl, 6 mM MgCl2, 1 mM DTT, 0.1% Tween-20, 0.2 mg/ml BSA; 25 C; 10 min per concentration, then washed). Conditions: tags: His6-TwinStrep-SUMO cleaved; N-terminal SNAP kept (SNAP-Surface 488); label: 3' end held by stalled T7 RNA polymerase.
T1 sequence: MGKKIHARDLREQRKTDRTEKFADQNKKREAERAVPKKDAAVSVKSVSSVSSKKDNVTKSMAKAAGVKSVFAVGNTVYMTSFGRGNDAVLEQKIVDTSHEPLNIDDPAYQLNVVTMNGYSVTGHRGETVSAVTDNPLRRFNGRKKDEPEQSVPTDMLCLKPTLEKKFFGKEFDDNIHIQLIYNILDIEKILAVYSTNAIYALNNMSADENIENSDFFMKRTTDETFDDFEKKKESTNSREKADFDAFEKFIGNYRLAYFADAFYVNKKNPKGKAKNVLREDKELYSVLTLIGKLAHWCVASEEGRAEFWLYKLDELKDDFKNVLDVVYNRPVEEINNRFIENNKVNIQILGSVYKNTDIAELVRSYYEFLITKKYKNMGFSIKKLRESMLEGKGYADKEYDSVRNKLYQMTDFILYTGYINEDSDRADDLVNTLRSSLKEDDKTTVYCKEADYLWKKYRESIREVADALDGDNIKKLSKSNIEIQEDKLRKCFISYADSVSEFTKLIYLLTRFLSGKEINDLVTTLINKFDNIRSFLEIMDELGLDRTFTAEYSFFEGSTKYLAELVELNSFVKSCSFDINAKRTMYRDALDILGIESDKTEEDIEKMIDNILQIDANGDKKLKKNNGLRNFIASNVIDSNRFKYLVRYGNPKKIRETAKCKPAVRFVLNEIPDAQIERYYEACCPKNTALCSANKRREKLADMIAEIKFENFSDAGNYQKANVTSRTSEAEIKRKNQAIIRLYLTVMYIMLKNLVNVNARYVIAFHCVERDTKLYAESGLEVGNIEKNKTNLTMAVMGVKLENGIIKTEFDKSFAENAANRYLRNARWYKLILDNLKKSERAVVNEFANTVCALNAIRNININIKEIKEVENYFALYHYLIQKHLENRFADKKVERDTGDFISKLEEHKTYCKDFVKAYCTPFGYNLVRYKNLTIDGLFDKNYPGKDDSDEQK

B1 and B2 are within 1.5-fold of each other in Kd: 19.2 ± 1.2 nM for the first, 15.7 ± 1.1 nM for the second.

Compared with B3, B4 is 8.5-fold lower in Kd: 100 ± 25 nM for the first, 11.7 ± 0.6 nM for the second. The second binds more tightly here.

B5 and B6 are within error of each other in Kd: 16.7 ± 1.3 nM for the first, 18.2 ± 1.4 nM for the second.

B7 and B8 are within 1.5-fold of each other in Kd: 28.8 ± 1.6 nM for the first, 20 ± 1.3 nM for the second.

First: B9
Second: B10
The Kd of the first is 1.9-fold higher: 28.5 ± 2.8 nM for the first, 14.8 ± 1.2 nM for the second.

Compared with B11, B12 is 3.1-fold higher in Kd: 27.8 ± 3.3 nM for the first, 87 ± 26 nM for the second.

Going from B13 to B14, the Kd falls from 85 ± 26 nM to 34.2 ± 2.7 nM (2.5-fold). The second binds more tightly here.

Compared with B15, B16 is 1.8-fold higher in Kd: 33.3 ± 1.5 nM for the first, 59 ± 7 nM for the second.

Going from B17 to B18, the Kd falls from 42 ± 6 nM to 9.6 ± 0.6 nM (4.4-fold).

B19 and B20 are within error of each other in Kd: 24.2 ± 1.2 nM for the first, 26.9 ± 1.9 nM for the second.

Going from B21 to B22, the Kd rises from 26.4 ± 2.4 nM to 63 ± 16 nM (2.4-fold).

B23 and B24 are within 1.5-fold of each other in Kd: 6.31 ± 0.23 nM for the first, 8.54 ± 0.3 nM for the second.

Going from B25 to B26, the Kd falls from 63 ± 12 nM to 26 ± 5 nM (2.4-fold).

First: B27
Second: B28
The Kd of the first is 5-fold higher: 19.9 ± 1.1 nM for the first, 3.99 ± 0.33 nM for the second. The second binds more tightly here.

Compared with B29, B30 is 2-fold higher in Kd: 21.1 ± 1.1 nM for the first, 42 ± 8 nM for the second. The first binds more tightly here.

Going from B31 to B32, the Kd falls from 35 ± 5 nM to 17.3 ± 2.5 nM (2-fold).

Work on B33 yielded a Kd of 13.4 ± 0.6 nM.
